Data: PMC4823152
Like-named read-outs stand apart in the source and are kept apart here.

How the values were obtained:
Assay in all cases: cryo-EM structure
[1] = biological target: φEL chaperonin (gene product 146 of Pseudomonas phage EL) (Pseudomonas phage EL)
[2] = biological target: φEL chaperonin (gene product 146 of Pseudomonas phage EL) (Pseudomonas phage EL); remark: listed apart in the source
[3] = biological target: φEL chaperonin (gene product 146 of Pseudomonas phage EL) (Pseudomonas phage EL); remark: listed apart in the source

For “φEL chaperonin (gene product 146 of Pseudomonas phage EL) (natural protein)”, the stoichiometry N [1] was 14, the stoichiometry N [2] was 7 and the stoichiometry N [3] was 14.
